For one substance, Kd (fold increase), koff (fold decrease) and kon (fold increase) results are on record in patent US20170298119A1.

This test addresses recombinant FcRn protein (Homo sapiens (Human)) (UniProt P55899). The experiment in a line: BLI (Octet): antibody on anti-CH1 biosensors, recombinant FcRn at pH 6.0; fold change against wild type Motavizumab (p-1342).

recombinant FcRn protein (Homo sapiens (Human)), sequence (P55899 24-297 limits assumed, chain 1 of 2): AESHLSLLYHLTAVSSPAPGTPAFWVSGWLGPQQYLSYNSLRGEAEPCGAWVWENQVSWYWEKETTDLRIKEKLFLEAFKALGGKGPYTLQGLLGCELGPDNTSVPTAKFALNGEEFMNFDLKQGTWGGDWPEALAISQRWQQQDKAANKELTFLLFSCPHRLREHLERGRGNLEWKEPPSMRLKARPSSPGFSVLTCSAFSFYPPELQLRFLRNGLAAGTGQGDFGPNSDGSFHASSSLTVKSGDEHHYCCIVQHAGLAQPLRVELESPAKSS
recombinant FcRn protein (Homo sapiens (Human)), sequence (beta, as listed by the source limits assumed, chain 2 of 2): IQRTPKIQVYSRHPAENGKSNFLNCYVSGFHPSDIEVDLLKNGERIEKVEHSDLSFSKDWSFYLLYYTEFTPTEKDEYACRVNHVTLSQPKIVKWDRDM

LS (antibody): the Kd (fold increase) is 9.3 fold, the koff (fold decrease) turned out to be 3.7 fold and the kon (fold increase) is 2.5 fold.
